Reference: the supplement of paper PMC7125110
± gives the standard error. Variants at the floor of the assay were thinned out.

B1: glmS ribozyme (parent)
chain: AUAAAAGCGCCAGAACUACAGAAAUGUAGUUGACGAGGAGGAGGUUUAUCGAAUUUUCGGCGGAUGCCUCCAAA

Assays:
Conditions in all cases: with glucosamine-6-phosphate
glucosamine-6-phosphate [1] = variants of: B1; experiment: self-cleavage kobs at 640 uM GlcN6P; higher = faster cleavage; RNA array
Outline: (§1)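 kobs was derived by fitting per-tile medians to one- or two-exponential decays after normalising signals to baseline and to non-cleaving reference variants. Those signals came from barcoded ribozyme variants transcribed in situ by E. coli RNA polymerase on sequenced MiSeq chips, followed through a hybridised Cy3 probe at 37 °C and imaged over ~14 h. Glucosamine-6-phosphate (40 μM to 10 mM) in HEPES/KCl/Mg(OAc)2 buffer was flowed in. Weighted Michaelis–Menten fits across concentrations then gave kcat and KM.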

glucosamine-6-phosphate [2] = variants of: B1; experiment: self-cleavage kobs at 2500 uM GlcN6P; higher = faster cleavage; RNA array
Outline: as §1

glucosamine-6-phosphate [3] = variants of: B1; experiment: self-cleavage kobs at 10000 uM GlcN6P; higher = faster cleavage; RNA array
Outline: as §1

Variant	self-cleavage kobs at 640 uM GlcN6P (glucosamine-6-phosphate [1]) [s⁻¹]	self-cleavage kobs at 2500 uM GlcN6P (glucosamine-6-phosphate [2]) [s⁻¹]	self-cleavage kobs at 10000 uM GlcN6P (glucosamine-6-phosphate [3]) [s⁻¹]
A6U C8A A64U	< 1e-05	< 1e-05	
A6G C67G C68A	7.11e-05 ± 3.1e-05		
G9C C50U U55G	< 1e-05	< 1e-05	
C58U C61G C67U	7.86e-05 ± 3.1e-05		
A12C U30A U56A	0.000365 ± 0.00012	0.00105 ± 0.00026	0.00357 ± 0.00086
A12G U46G C58G G63U U69A	0.000158 ± 6.3e-05		
C10U A33C U46C G51C G60C	< 1e-05	< 1e-05	
G29A G32U U56A	8.76e-05 ± 2.8e-05	0.000464 ± 0.00011	
G29U C58A C68A	0.000121 ± 3.2e-05	3.43e-05 ± 1.5e-05	
U30C G32U A64G	7.24e-05 ± 2.3e-05	0.000195 ± 5.7e-05	
C34U G35C C50U C67A	< 1e-05	< 1e-05	
G7U A14G G60C C70A	< 1e-05		
A42C G43U U56A G66U	< 1e-05		
G29U G66C	4.59e-05 ± 1.9e-05	9.16e-05 ± 2.9e-05	
A36U G40U G60U	< 1e-05	< 1e-05	
A14G A42G G59C	< 1e-05		
U30A A48C C58A G60A	< 1e-05		
G44C U47C A53G	< 1e-05		
G7C A15C G51U C61A G66U	< 1e-05		
C34U U47C	< 1e-05	< 1e-05	< 1e-05
G13U G32A A36G G38U	< 1e-05		
C11A G32C G41U A52U	< 1e-05		
A53G U54G U55G C61A C70U	0.000595 ± 0.00019	7.21e-05 ± 2.5e-05	

Variant	self-cleavage kobs at 640 uM GlcN6P (glucosamine-6-phosphate [1]) [s⁻¹]	self-cleavage kobs at 2500 uM GlcN6P (glucosamine-6-phosphate [2]) [s⁻¹]	self-cleavage kobs at 10000 uM GlcN6P (glucosamine-6-phosphate [3]) [s⁻¹]
G9A U57A	< 1e-05	< 1e-05	
U47A C61A C67G C71A	< 1e-05	< 1e-05	
C34A C67A	< 1e-05		< 1e-05
G7C C8A U30C A33C	< 1e-05	< 1e-05	< 1e-05
A14U U30G U69G C71G	0.000132 ± 4.4e-05	0.00026 ± 5.9e-05	
G37A A64G C71U	3.85e-05 ± 1.7e-05		
G9U G41A A42U	< 1e-05	< 1e-05	
C8A G9A G13U	< 1e-05		
G7C A12G A36C	< 1e-05		
G32U C34A G44A C68A	< 1e-05	< 1e-05	
G35U A42G U55A	< 1e-05		
C58U U69A	6.22e-05 ± 2.6e-05		
C8U C10U C11U G51C	< 1e-05		
G26U G60A C68A	9.37e-05 ± 4.6e-05		
A12C G41A A42U G51C C68G C70U	< 1e-05		
A6G A36C C50G	0.000132 ± 3.4e-05		
A6C C16U G60U	< 1e-05	< 1e-05	
G32C U56A U65G U69G	0.000283 ± 0.0001	6.06e-05 ± 3e-05	
G9U U54G C68U	< 1e-05		
A12U G32A G41C G62U C68U	< 1e-05	< 1e-05	
A39G A53C C67U	0.00111 ± 0.00036	0.000701 ± 0.00027	
G38C G43A A64G	< 1e-05		
U69C C70G	4.82e-05 ± 1.6e-05		

Variant	self-cleavage kobs at 640 uM GlcN6P (glucosamine-6-phosphate [1]) [s⁻¹]	self-cleavage kobs at 2500 uM GlcN6P (glucosamine-6-phosphate [2]) [s⁻¹]	self-cleavage kobs at 10000 uM GlcN6P (glucosamine-6-phosphate [3]) [s⁻¹]
A33G G41C G63U	< 1e-05		< 1e-05
C34G U46G U65A	< 1e-05	< 1e-05	
A12U G29U G37A U55A	0.000291 ± 8.3e-05	0.000446 ± 9.5e-05	
C8U A15G C16U U55C	< 1e-05		
U31C A42U G44A	< 1e-05	< 1e-05	
A15U G38U G63U	< 1e-05		
C10A G38A G40U C50G G51U	< 1e-05	< 1e-05	
C11G C58A C68A	0.000165 ± 6.6e-05		
A36G U47A	< 1e-05		
A42U U57G	< 1e-05	< 1e-05	
C8U A15U U46G G51A G66A	< 1e-05		
U31C G44A U46G G59A C70U	< 1e-05	< 1e-05	
A14G C34U U54G C58G U69G	0.000551 ± 0.0002		
G43A G51U U65A G66U	< 1e-05	< 1e-05	
C61U C67G	< 1e-05		
A6G G51A G59U G60A	< 1e-05	< 1e-05	
G9C A39U G40U	< 1e-05	< 1e-05	
G13U G43C C67U	< 1e-05	< 1e-05	< 1e-05
C8G G32U G44C	< 1e-05		
A12G G13U U47G A53U G66A	< 1e-05		
C11U G13A G44U	< 1e-05	< 1e-05	
